# Reference: US20260242444A1 (SUZHOU FORLONG BIOTECHNOLOGY, published 2026)
# B1: IL-15R β protein (receptor, UniProt P14784 27-239, looked up)
# chain: AVNGTSQFTCFYNSRANISCVWSQDGALQDTSCQVHAWPDRRRWNQTCELLPVSQASWACNLILGAPDSQKLTTVDIVTLRVLCREGVRWRVMAIQDFKPFENLRLMAPISLQVVHVETHRCNISWEISQASHYFERHLEFEARTLSPGHTWEEAPLLTLKQKQEWICLETLTPDTQYEFQVRVKPLQGEFTTWSPWSQPLAFRTKPAALGKD
# notes: also called IL-15 receptor β; IL-2/IL-15 receptor beta
# Key:
# IL-15R β protein = IL-15R β protein (UniProt P14784); assay: BLI (Octet-RED), IL-15Rβ immobilized on Ni-NTA biosensors, serial dilutions of the complex as analyte, global 1:1 fit
# FL115-WT = FL115-WT (Homo sapiens (Human), UniProt P40933 49-162); assay: as above
# Sequence of FL115-WT (chain, as listed by the source limits assumed, chain 1 of 2): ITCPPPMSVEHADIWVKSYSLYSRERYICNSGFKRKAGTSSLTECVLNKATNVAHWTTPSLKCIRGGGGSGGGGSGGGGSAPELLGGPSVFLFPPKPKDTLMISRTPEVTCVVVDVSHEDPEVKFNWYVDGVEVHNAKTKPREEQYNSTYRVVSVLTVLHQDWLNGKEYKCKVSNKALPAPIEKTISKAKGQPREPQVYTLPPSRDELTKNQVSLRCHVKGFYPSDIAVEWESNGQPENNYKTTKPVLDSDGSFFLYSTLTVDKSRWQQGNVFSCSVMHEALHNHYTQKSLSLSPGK
# Sequence of FL115-WT (P40933 49-162 limits assumed, chain 2 of 2): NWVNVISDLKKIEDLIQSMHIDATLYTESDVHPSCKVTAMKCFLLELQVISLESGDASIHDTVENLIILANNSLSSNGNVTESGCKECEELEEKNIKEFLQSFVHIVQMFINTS
# Description: The binding activity of an agonistic interleukin 15 complex to the receptor IL-15R β was assayed using an Octet-RED (Pall ForteBio) Bio-Layer Interferometry (BLI) instrument. […] 6.2 (2022): e2100966, PMID: 35174992). The baseline was established in kinetics buffer and loaded biosensors were dipped into wells containing serial dilutions of an agonistic interleukin 15 complex for 300 s. FL115 (also named FL115-V2), an agonistic interleukin 15 complex according to an embodiment of the application, contains a monomeric IL-15 receptor αSu/Fc fusion protein having the amino acid sequence of SEQ ID NO: 2 and a mutant IL15 having the amino acid sequence of SEQ ID NO: 3. FL115-WT, another agonistic interleukin 15 complex according to an embodiment of the application, contains a monomeric IL-15 receptor αSu/Fc fusion protein having the amino acid sequence of SEQ ID NO: 2 and the wild-type IL15 having the amino acid sequence of SEQ ID NO: 4. The agonistic interleukin 15 complex was bound to the immobilized IL-15R β protein. The binding complexes of the IL-15R β protein-agonistic IL15 complex were then allowed to dissociate in kinetics buffer. Global data fitting to a 1:1 binding model was used to estimate the affinity using Data Analysis software version 8.1.
Molecule,Kd (IL-15R β protein) [nM],koff (IL-15R β protein) [s⁻¹],kon (IL-15R β protein) [M⁻¹ s⁻¹],Kd (FL115-WT) [nM],koff (FL115-WT) [s⁻¹],kon (FL115-WT) [M⁻¹ s⁻¹]
ALT 803 (Fc fusion),3.9,0.000235,60400,–,–,–
B1,–,–,–,62.7,0.00108,17200
